{"source": "patent US20220340905", "about": "“NUCLEIC ACID APTAMER SPECIFICALLY RECOGNIZING B-LACTOGLOBULIN AND USE THEREOF” (JIANGNAN UNIVERSITY, published 2022)", "binders": {"B1": {"name": "Lg-16 (ssDNA)", "DNA": "AGCAGCACAGAGGTCAGATGTCGTTTGTGGCTGTCAATTGGTGTGTTTACCTGTTTTGGCCTATGCGTGCTACCGTGAA"}, "B2": {"name": "Lg-18 (ssDNA)", "DNA": "AGCAGCACAGAGGTCAGATGTTCGGCCTTTGCGTTAACGAACTTCTAGCTATGCGGCGTACCTATGCGTGCTACCGTGAA"}, "B3": {"name": "Lg-9 (ssDNA)", "DNA": "AGCAGCACAGAGGTCAGATGGTTTTGTTGGGTCTGCTACGGACTTTGTTGACCTTTGCTCCCTATGCGTGCTACCGTGAA"}}, "key": {"beta-lactoglobulin [1]": {"molecular_target": "T1, beta-lactoglobulin (UniProt P02754 P02754:17-178)", "T1 sequence": "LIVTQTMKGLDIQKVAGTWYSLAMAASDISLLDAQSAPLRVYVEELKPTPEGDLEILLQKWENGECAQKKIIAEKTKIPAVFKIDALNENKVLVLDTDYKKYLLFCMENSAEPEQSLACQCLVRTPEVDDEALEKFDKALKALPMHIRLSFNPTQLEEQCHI", "assay": "magnetic bead strand-displacement fluorescence assay, 37 C", "conditions": "label: 5'-FAM (fluorescence assay)", "protocol": "(§1) Various concentrations (10 nM, 25 nM, 50 nM, 75 nM, 100 nM, 150 nM, 200 nM, and 300 nM) of the aptamer were respectively mixed with the biotinylated complementary short chain at a molar ratio of 1:1.5, denatured at 95° C. for 10 min, and slowly cooled to 37° C. for 3 h until the two were fully hybridized. The mixture was reacted with a certain amount of streptavidin-coupled magnetic beads (where the weight ratio of the aptamer to the magnetic beads was 1:400) at 37° C. and 200 rpm for 2 h to immobilize the aptamer on the magnetic beads by the strong binding between the biotin and streptavidin. The immobilized magnetic beads were incubated with 50 μg/mL β-lactoglobulin in a 300 μL system at 37° C. and 200 rpm. After magnetic separation, the supernatant was subjected to fluorescence measurement at an excitation wavelength of 485 nm and an emission wavelength of 522 nm. The relative fluorescence intensity at various aptamer concentrations was nonlinearly fitted by GraphPad prism 5.0 software, and the dissociation constant Kd of the aptamer was calculated (see Table 1). […] The homologous sequences (Lg-9 and Lg-16) of the aptamer Lg-18 also have good ability of binding to β-lactoglobulin."}, "alpha-lactalbumin": {"molecular_target": "T2, alpha-lactalbumin (UniProt P00711 P00711:20-142)", "T2 sequence": "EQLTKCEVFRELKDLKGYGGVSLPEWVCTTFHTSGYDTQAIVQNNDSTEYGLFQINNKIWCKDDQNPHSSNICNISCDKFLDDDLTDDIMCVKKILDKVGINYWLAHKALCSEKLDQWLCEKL", "assay": "specificity control, 50 ug/mL protein, 200 nM aptamer on magnetic beads; text states good specificity, values only in figure", "conditions": "label: 5'-FAM (fluorescence assay); stem-loop (Mfold predicted)", "protocol": "(§2) Various concentrations (10 nM, 25 nM, 50 nM, 75 nM, 100 nM, 150 nM, 200 nM, and 300 nM) of the aptamer were respectively mixed with the biotinylated complementary short chain at a molar ratio of 1:1.5, denatured at 95° C. for 10 min, and slowly cooled to 37° C. for 3 h until the two were fully hybridized. The mixture was reacted with a certain amount of streptavidin-coupled magnetic beads (where the weight ratio of the aptamer to the magnetic beads was 1:400) at 37° C. and 200 rpm for 2 h to immobilize the aptamer on the magnetic beads by the strong binding between the biotin and streptavidin. The immobilized magnetic beads were incubated with 50 μg/mL β-lactoglobulin in a 300 μL system at 37° C. and 200 rpm. After magnetic separation, the supernatant was subjected to fluorescence measurement at an excitation wavelength of 485 nm and an emission wavelength of 522 nm. The relative fluorescence intensity at various aptamer concentrations was nonlinearly fitted by GraphPad prism 5.0 software, and the dissociation constant Kd of the aptamer was calculated (see Table 1). […]\n(§3) The specificity of the aptamer (Lg-18) was evaluated by the same method. […] After magnetic separation, the fluorescence intensity of the supernatant was measured respectively, and then the specificity of the aptamer was evaluated."}, "[2]": {"molecular_target": "BSA (bovine serum albumin) (Bos taurus, UniProt P02769 P02769:25-607)", "sequence (P02769 25-607, one chain of several)": "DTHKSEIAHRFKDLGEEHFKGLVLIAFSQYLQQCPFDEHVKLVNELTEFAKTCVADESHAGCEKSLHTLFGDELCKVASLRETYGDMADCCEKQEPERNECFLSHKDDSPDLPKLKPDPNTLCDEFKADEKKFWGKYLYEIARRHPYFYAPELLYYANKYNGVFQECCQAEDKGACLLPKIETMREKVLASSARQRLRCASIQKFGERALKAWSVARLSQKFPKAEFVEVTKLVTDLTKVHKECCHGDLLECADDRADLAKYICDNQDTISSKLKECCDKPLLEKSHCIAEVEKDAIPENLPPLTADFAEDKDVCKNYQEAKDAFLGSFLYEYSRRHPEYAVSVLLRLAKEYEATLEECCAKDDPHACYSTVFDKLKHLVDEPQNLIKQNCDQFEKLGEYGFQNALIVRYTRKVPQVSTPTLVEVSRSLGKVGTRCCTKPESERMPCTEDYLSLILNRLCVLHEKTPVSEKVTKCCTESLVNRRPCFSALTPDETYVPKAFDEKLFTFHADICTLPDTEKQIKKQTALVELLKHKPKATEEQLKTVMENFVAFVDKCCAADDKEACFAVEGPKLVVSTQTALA", "assay": "specificity control, 50 ug/mL protein, 200 nM aptamer on magnetic beads; text states good specificity, values only in figure", "conditions": "label: 5'-FAM (fluorescence assay); stem-loop (Mfold predicted)", "protocol": "as §2, §3"}, "beta-lactoglobulin [3]": {"molecular_target": "T1, beta-lactoglobulin", "assay": "magnetic bead strand-displacement fluorescence assay, 37 C; aptamer hybridised to biotinylated short chain, released by 50 ug/mL protein; ITC in 10 mM Tris-HCl", "conditions": "label: 5'-FAM (fluorescence assay); stem-loop (Mfold predicted)", "protocol": "as §1"}}, "data": [{"binder": "B1", "values": [{"measurement": "Kd", "setting": "beta-lactoglobulin [1]", "result": 65.8, "unit": "nM"}]}, {"binder": "B2", "values": [{"measurement": "binding result", "setting": "alpha-lactalbumin", "result": "no binding"}, {"measurement": "binding result", "setting": "[2]", "result": "no binding"}, {"measurement": "Kd", "setting": "beta-lactoglobulin [3]", "result": 65, "unit": "nM"}]}, {"binder": "B3", "values": [{"measurement": "Kd", "setting": "beta-lactoglobulin [1]", "result": 71.8, "unit": "nM"}]}]}
